# Source: US20220265806A1
# Target: E1′ (CHIKV E1 ectodomain construct) (Chikungunya virus)
substance,measurement,value
chCHK-166^pMAZ (antibody),EC50,2.2 nM
